Experimental data from the supplement of paper PMC9170038.

Test system: MS2 coat protein
Experiment: apparent KD of MS2 coat protein; designed switch direction (-1 OFF switch, 1 ON switch): -1; higher = weaker reporter binding
Conditions: Eterna round: R98
Protocol: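 RNA-MaP: designed FMN/MS2 RNA switches (84 nt design region) are transcribed on-chip within common flanks and titrated with SNAP-549-labelled MS2 coat protein (about 1-3000 nM) in 100 mM Tris pH 7.5, 80 mM KCl, 4 mM MgCl2, without or with 200 uM FMN. Median apparent KD per design; activation ratio = KD,OFF / KD,ON.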

Sequence: UAUAUAAUUAAGAGCUGGUCCAAAACAUGAGGAUCACCCAUGUAGGAUAUCAGCACGAUAAGUGCUGAGAAGGACAACCAGCUC [Denovo 85]
- apparent KD of MS2 coat protein (input ligand: FMN 200 uM): 15.2 nM
- apparent KD of MS2 coat protein (input ligand: none): 17.2 nM
